# Experimental data published in PMC10397247.
# T1: 4H2588-bA
# T1 chain: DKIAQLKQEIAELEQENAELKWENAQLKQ
# T2: 4H40-bA
# T2 chain: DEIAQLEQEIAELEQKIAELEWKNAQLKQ
# T3: 4H2503-bA
# T3 chain: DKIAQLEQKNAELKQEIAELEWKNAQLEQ
# T4: 4H2915-bA
# T4 chain: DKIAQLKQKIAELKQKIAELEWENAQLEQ
# T5: 4H2473-bA
# T5 chain: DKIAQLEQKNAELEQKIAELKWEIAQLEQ
# T6: 4H492-bA
# T6 chain: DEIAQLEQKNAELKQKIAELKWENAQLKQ
# T7: 4H3277-bA
# T7 chain: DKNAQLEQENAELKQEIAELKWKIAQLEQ
# T8: 4H2839-bA
# T8 chain: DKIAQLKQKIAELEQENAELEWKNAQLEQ
# T9: 4H319-bA
# T9 chain: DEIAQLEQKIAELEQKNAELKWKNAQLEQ
# T10: 4H477-bA
# T10 chain: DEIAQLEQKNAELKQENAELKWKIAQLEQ
# T11: 4H3057-bA
# T11 chain: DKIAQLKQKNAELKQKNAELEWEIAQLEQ
# T12: 4H2692-bA
# T12 chain: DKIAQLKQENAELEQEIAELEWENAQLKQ
# T13: 4H2717-bA
# T13 chain: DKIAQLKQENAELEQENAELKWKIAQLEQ
# T14: 4H2438-bA
# T14 chain: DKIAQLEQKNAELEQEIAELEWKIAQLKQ
# T15: 4H348-bA
# T15 chain: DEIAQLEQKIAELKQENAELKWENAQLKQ
# T16: 4H2223-bA
# T16 chain: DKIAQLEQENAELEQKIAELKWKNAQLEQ
# T17: 4H741-bA
# T17 chain: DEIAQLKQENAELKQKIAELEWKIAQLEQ
# T18: 4H3651-AA
# T18 chain: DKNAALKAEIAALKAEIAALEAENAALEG
# T19: 4H465-AA
# T19 chain: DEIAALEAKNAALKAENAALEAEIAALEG
# T20: 4H895-AA
# T20 chain: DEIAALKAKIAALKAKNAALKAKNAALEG
# T21: 4H486-AA
# T21 chain: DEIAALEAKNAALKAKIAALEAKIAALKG
# T22: 4H355-AA
# T22 chain: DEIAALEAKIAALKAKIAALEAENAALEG
# T23: 4H2750-AA
# T23 chain: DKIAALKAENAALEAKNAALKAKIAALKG
# T24: 4H3365-AA
# T24 chain: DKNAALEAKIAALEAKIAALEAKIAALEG
# T25: 4H1802-AA
# T25 chain: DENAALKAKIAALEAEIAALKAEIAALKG
# T26: 4H2600-AA
# T26 chain: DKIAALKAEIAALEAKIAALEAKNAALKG
# T27: 4H2898-AA
# T27 chain: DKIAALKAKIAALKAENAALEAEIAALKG
# T28: 4H3705-AA
# T28 chain: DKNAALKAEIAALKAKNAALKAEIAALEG
# T29: 4H3020-AA
# T29 chain: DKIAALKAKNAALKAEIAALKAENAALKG
# T30: 4H3782-AA
# T30 chain: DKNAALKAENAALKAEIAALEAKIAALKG
# T31: 4H_APH
# T31 chain: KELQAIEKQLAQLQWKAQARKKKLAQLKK
# T32: 4H_BCR
# T32 chain: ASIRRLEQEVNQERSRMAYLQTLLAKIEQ
# T33: 4H58-AA
# T33 chain: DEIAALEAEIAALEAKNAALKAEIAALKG
# T34: 4H535-AA
# T34 chain: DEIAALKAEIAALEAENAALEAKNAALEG
# T35: 4H656-AA
# T35 chain: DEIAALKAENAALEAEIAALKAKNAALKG
# T36: 4H2721-AA
# T36 chain: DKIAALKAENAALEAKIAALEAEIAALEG
# B1: 4H2223-bA (peptide)
# chain: DKIAQLEQENAELEQKIAELKWKNAQLEQ
# B2: 4H1802-AA (peptide)
# chain: DENAALKAKIAALEAEIAALKAEIAALKG
# Legend:
# 4H2588-bA = biological target: T1, 4H2588-bA; assay: two-hybrid library CCNG1;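 note: natural log of median RNA to DNA barcode read ratio; higher means stronger binding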
# 4H40-bA = biological target: T2, 4H40-bA; assay: two-hybrid library CCNG1;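 note: natural log of median RNA to DNA barcode read ratio; higher means stronger binding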
# 4H2503-bA = biological target: T3, 4H2503-bA; assay: two-hybrid library CCNG1;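 note: natural log of median RNA to DNA barcode read ratio; higher means stronger binding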
# 4H2915-bA = biological target: T4, 4H2915-bA; assay: two-hybrid library CCNG1;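 note: natural log of median RNA to DNA barcode read ratio; higher means stronger binding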
# 4H2473-bA = biological target: T5, 4H2473-bA; assay: two-hybrid library CCNG1;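 note: natural log of median RNA to DNA barcode read ratio; higher means stronger binding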
# 4H492-bA = biological target: T6, 4H492-bA; assay: two-hybrid library CCNG1;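 note: natural log of median RNA to DNA barcode read ratio; higher means stronger binding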
# 4H3277-bA = biological target: T7, 4H3277-bA; assay: two-hybrid library CCNG1
# 4H2839-bA = biological target: T8, 4H2839-bA; assay: two-hybrid library CCNG1
# 4H319-bA = biological target: T9, 4H319-bA; assay: two-hybrid library CCNG1
# 4H477-bA = biological target: T10, 4H477-bA; assay: two-hybrid library CCNG1
# 4H3057-bA = biological target: T11, 4H3057-bA; assay: two-hybrid library CCNG1
# 4H2692-bA = biological target: T12, 4H2692-bA; assay: two-hybrid library CCNG1
# 4H2717-bA = biological target: T13, 4H2717-bA; assay: two-hybrid library CCNG1
# 4H2438-bA = biological target: T14, 4H2438-bA; assay: two-hybrid library CCNG1
# 4H348-bA = biological target: T15, 4H348-bA; assay: two-hybrid library CCNG1
# 4H2223-bA = biological target: T16, 4H2223-bA; assay: two-hybrid library CCNG1
# 4H741-bA = biological target: T17, 4H741-bA; assay: two-hybrid library CCNG1
# 4H3651-AA = biological target: T18, 4H3651-AA; assay: two-hybrid library CCmax; details: mean of both orientations
# 4H465-AA = biological target: T19, 4H465-AA; assay: two-hybrid library CCmax; details: mean of both orientations
# 4H_GCN4 = assay: two-hybrid library CCmax
# 4H_GCN4, sequence (chain, as listed by the source): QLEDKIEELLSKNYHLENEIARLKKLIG
# 4H895-AA = biological target: T20, 4H895-AA; assay: two-hybrid library CCmax; details: mean of both orientations
# 4H486-AA = biological target: T21, 4H486-AA; assay: two-hybrid library CCmax; details: mean of both orientations
# 4H355-AA = biological target: T22, 4H355-AA; assay: two-hybrid library CCmax; details: mean of both orientations
# 4H2750-AA = biological target: T23, 4H2750-AA; assay: two-hybrid library CCmax; details: mean of both orientations
# 4H3365-AA = biological target: T24, 4H3365-AA; assay: two-hybrid library CCmax; details: mean of both orientations
# 4H1802-AA = biological target: T25, 4H1802-AA; assay: two-hybrid library CCmax
# 4H2600-AA = biological target: T26, 4H2600-AA; assay: two-hybrid library CCmax; details: mean of both orientations
# GCN2_T = assay: two-hybrid library CCmax
# 4H2898-AA = biological target: T27, 4H2898-AA; assay: two-hybrid library CCmax; details: mean of both orientations
# 4H3705-AA = biological target: T28, 4H3705-AA; assay: two-hybrid library CCmax; details: mean of both orientations
# 4H3020-AA = biological target: T29, 4H3020-AA; assay: two-hybrid library CCmax; details: mean of both orientations
# 4H3782-AA = biological target: T30, 4H3782-AA; assay: two-hybrid library CCmax; details: mean of both orientations
# 4H_APH = biological target: T31, 4H_APH; assay: two-hybrid library CCmax; details: mean of both orientations
# 4H_BCR = biological target: T32, 4H_BCR; assay: two-hybrid library CCmax; details: mean of both orientations
# 4H58-AA = biological target: T33, 4H58-AA; assay: two-hybrid library CCmax; details: mean of both orientations
# 4H535-AA = biological target: T34, 4H535-AA; assay: two-hybrid library CCmax; details: mean of both orientations
# 4H656-AA = biological target: T35, 4H656-AA; assay: two-hybrid library CCmax
# 4H2721-AA = biological target: T36, 4H2721-AA; assay: two-hybrid library CCmax; details: mean of both orientations
binder,measurement,setting,value
B1,interaction score,4H2588-bA,-0.336
same,interaction score,4H40-bA,-1.46
same,interaction score,4H2503-bA,1.47
same,interaction score,4H2915-bA,0.32
same,interaction score,4H2473-bA,-0.247
same,interaction score,4H492-bA,1.49
same,interaction score,4H3277-bA,-0.571
same,interaction score,4H2839-bA,-0.368
same,interaction score,4H319-bA,-0.61
same,interaction score,4H477-bA,-1.47
same,interaction score,4H3057-bA,0.223
same,interaction score,4H2692-bA,-0.196
same,interaction score,4H2717-bA,-0.279
same,interaction score,4H2438-bA,0.457
same,interaction score,4H348-bA,-1.22
same,interaction score,4H2223-bA,0.291
same,interaction score,4H741-bA,0.169
B2,interaction score,4H3651-AA,-1.48
same,interaction score,4H465-AA,-1.48
same,interaction score,4H_GCN4,-1.26
same,interaction score,4H895-AA,-1.85
same,interaction score,4H486-AA,-1.28
same,interaction score,4H355-AA,-0.981
same,interaction score,4H2750-AA,-1.63
same,interaction score,4H3365-AA,-1.3
same,interaction score,4H1802-AA,1.63
same,interaction score,4H2600-AA,-0.95
same,interaction score,GCN2_T,-1.36
same,interaction score,4H2898-AA,-1.81
same,interaction score,4H3705-AA,-1.42
same,interaction score,4H3020-AA,-1.81
same,interaction score,4H3782-AA,-1.38
same,interaction score,4H_APH,-1.86
same,interaction score,4H_BCR,-1.68
same,interaction score,4H58-AA,-1.15
same,interaction score,4H535-AA,-1.73
same,interaction score,4H656-AA,-2.89
same,interaction score,4H2721-AA,-1.29
